Changes are numbered by the printed parent chain.
B1: CPA.7.050 human IgG1 (antibody, V domains shown)
VH: EVQLVQSGAEVKKPGSSVKVSCKASGGTFSSYAISWVRQAPGQGLEWMGGIIPIFGTANYAQKFQGRVTITADKSTSTAYMELSSLRSEDTAVYYCARGPWYYDSSGYSSYAYYMDVWGQGTTVTVSS
VL: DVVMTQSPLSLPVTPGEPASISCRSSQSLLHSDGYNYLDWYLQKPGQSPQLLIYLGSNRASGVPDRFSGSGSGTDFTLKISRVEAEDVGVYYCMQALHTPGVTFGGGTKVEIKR
notes: also called CPA.7.50
B2: Anti-human PVRIG - CPA.7.021, Human IgG2, conjugated to AF-647 (antibody, V domains shown)
VH: EVQLVESGGGVVKPGGSLRLSCAASGFTFGTSSMNWVRQAPGKGLEWVAVISFDGTEIHYADSVKGRFTISRDNSKSTVFLQMNSLRPDDTALYYCAKGSGNIYFYSGMDVWGQGTTVTVSS
VL: DIQMTQSPSTLSASVGDRVTITCRAGQSISGWLAWFQQKPGKAPNLLIYETSTLESGVPSRFSGSGSGTEYTLTISSLQPDDFATYYCQQYYSYPLTFGQGTKVEIK
modifications: Alexa Fluor 647 dye conjugated to the antibody (site not stated).
notes: also called Anti PVRIG-CPA.7.021 ab; CPA.7.021 IgG2 A647
B3: CPA.7.021 IgG conjugated with Alexa 647 (antibody, V domains shown)
VH: B2 VH
VL: B2 VL
modifications: Alexa Fluor 647 dye conjugated to the antibody (site not stated).
notes: also called Alexa647 labelled CPA.7.021 IgG; conjugated CPA.7.021
B4: CPA.7.021 human IgG1 (antibody, V domains shown)
VH: B2 VH
VL: DIQMTQSPSTLSASVGDRVTITCRAGQSISGWLAWFQQKPGKAPNLLIYETSTLESGVPSRFSGSGSGTEYTLTISSLQPDDFATYYCQQYYSYPLTFGQGTKVEIKR
B5: human DNAM-1 fusion protein (human fc, R&D Systems) (Fc fusion, UniProt Q15762 19-247, looked up, not shown: a dimerising Fc or GST)
chain: EEVLWHTSVPFAENMSLECVYPSMGILTQVEWFKIGTQQDSIAIFSPTHGMVIRKPYAERVYFLNSTMASNNMTLFFRNASEDDVGYYSCSLYTYPQGTWQKVIQVVQSDSFEAAVPSNSHIVSEPGKNVTLTCQPQMTWPVQAVRWEKIQPRQIDLLTYCNLVHGRNFTSKFPRQIVSNCSHGRWSVIVIPDVTVSDSGLYRCYLQASAGENETFVMRLTVAEGKTDN
notes: Bought
B6: CPA.7.036 human IgG1 (antibody, V domains shown)
VH: QVQLVQSGAEVKKPGSSVKVSCKASGGTFSSSAISWVRQAPGQGFEWMGGIIPIYGITDYAQKFQGRVTITTDESTSTAYMELSSLTSEDTAVYYCARDDTARRVRGVPYYYYYAMDVWGQGTTVTVSS
VL: DIVMTQTPLSLPVTPGEPASISCRPSQSLLDSDDGNTYLDWYLQKPGQSPQLLIHTLSYRASGVPDRFSGSGSGTDFTLKISRVEAEDVGVYYCMQRLQFPLTFGGGTKVEIKR
notes: also called CPA.7.36
B7: CPA.7.038 human IgG1 (antibody, V domains shown)
VH: B6 VH
VL: DIQMTQSPSSLSASVGDRVTITCQASRDISDSLSWYQQKPGKAPKLLIFDASNLKTGVSSRFSGSGSGTDFTFTISSLQPEDIATYYCHQYDNLPLTFGGGTKVEIKR
B8: CPA.7.049 human IgG1 (antibody, V domains shown)
VH: B6 VH with V2M
VL: B6 VL with I21M, P25S, Q27R, Y38H, H55Q, T56S, K80E, V91I, L98K, Q99E

Assays:
[1] = target: T1, human PVRIG (Poliovirus Receptor Related Immunoglobulin Domain Containing Protein), full length on cells (human, UniProt Q6DKI7 41-326); test: FACS dose titration on PVRIG over-expressing HEK293 cells
T1 construct: whole, on cells; Over-expressed on HEK293 (some pools flag-tagged) or endogenous on Jurkat, CA46, T cells, NK cells, TILs; also called hPVRIG; HEK hPVRIG
T1 sequence (looked up): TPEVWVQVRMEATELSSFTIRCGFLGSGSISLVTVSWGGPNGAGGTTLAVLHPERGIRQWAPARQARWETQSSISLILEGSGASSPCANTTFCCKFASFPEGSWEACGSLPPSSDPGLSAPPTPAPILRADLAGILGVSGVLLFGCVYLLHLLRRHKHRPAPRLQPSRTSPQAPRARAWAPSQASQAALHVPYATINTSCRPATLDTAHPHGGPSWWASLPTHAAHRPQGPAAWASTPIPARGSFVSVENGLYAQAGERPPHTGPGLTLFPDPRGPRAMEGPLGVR
Protocol: FACS screening of the reformatted antibodies was done similarly to the PPE based screen described herein, except that a dose-dependent titration of the purified antibodies was performed. The human PVRIG over-expressing HEK293 cells, or the un-transfected HEK293 cells, were incubated with varying concentrations (0-10 μg/ml) of the anti PVRIG antibodies or isotype controls in FACS buffer at 4° C. for 60 mins. […] Cells were washed twice and re-suspended in a final volume of 80 μl of FACS buffer and Propidium Iodide (Biolegend cat #421301) diluted 1:1000. Samples were analyzed using an Intellicyt HTFC screening system (Intellicyt). Data was analyzed using FlowJo (DeNovo), exported to Excel (Microsoft) and plotted in GraphPad Prism (GraphPad Software, Inc.).
All unique ELISA and FACS binders were reformatted for expression as human IgG1 molecules in Expi293 cells. […] These reformatted antibodies were tested for retained binding to PVRIG over-expressing HEK293 cells alongside an irrelevant human IgG1 isotype control. All antibodies were also tested against un-transfected HEK293 cells.

[2] = target: T1, human PVRIG (Poliovirus Receptor …); test: FACS on resting human CD4+ T cells
[3] = target: T1, human PVRIG (Poliovirus Receptor …); test: FACS on CD4+ T cells, days 3-6 of activation
[4] = target: T1, human PVRIG (Poliovirus Receptor …); test: flow cytometry, Alexa 647 IgG titrated on HEK 293 cells expressing human PVRIG, 1:1 equilibrium fit
[5] = target: T2, L95R/T97I cyno PVRIG ECD with C-terminal 6xHis tag (cynomolgus monkey); test: ELISA on coated His-tagged PVRIG variant
T2 chain: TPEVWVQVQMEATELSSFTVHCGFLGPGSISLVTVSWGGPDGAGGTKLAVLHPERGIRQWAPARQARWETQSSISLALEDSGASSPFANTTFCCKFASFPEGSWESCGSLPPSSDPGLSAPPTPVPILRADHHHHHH

[6] = target: T3, human PVRL2-His (Catalog #2229-N2-050/CF, R&D Systems) (human, UniProt Q92692 32-360); test: SPR ProteOn, analyte over Fc-captured ligand; complex kinetics
T3 construct: Bought (R&D Systems); also called His-tagged PVRL2 recombinant protein; PVRL2 (CD112)
T3 sequence (looked up): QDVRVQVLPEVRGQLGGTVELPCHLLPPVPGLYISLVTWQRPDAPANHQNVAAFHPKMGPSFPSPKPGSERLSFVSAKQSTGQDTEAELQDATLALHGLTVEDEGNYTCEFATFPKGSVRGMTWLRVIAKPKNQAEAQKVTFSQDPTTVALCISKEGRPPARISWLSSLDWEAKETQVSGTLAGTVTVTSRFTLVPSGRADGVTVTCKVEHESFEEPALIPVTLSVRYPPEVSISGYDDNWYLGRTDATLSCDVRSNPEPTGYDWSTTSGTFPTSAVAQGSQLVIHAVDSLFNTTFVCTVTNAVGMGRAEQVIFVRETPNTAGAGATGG

Row | Binder | Kd [1] [nM] | other results
1 | B1 | 68.3 | –
2 | B2 | – | fold staining over isotype control [2]: 3 fold; fold staining over isotype control [3]: 2 to 3 fold
3 | B3 | – | Kd [4]: 2.5 nM
4 | B4 | 11.2 | binding result [5]: binds
5 | B5 | – | binding result [6]: binds
6 | B6 | 6 | –
7 | B7 | 20.3 | –
8 | B8 | 19.9 | –
